For assay [1], the target named is T1, human MICA002 on cells (human).
T1 chain: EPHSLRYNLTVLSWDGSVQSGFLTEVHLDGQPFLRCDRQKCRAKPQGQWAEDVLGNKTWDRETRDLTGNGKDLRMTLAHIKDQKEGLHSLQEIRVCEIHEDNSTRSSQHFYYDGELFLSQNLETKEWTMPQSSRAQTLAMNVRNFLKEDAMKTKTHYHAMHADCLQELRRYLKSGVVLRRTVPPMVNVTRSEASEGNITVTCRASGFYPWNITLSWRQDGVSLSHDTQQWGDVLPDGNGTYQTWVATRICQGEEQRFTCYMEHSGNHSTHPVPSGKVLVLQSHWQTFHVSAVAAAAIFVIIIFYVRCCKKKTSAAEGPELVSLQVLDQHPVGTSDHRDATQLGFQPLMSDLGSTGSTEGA
Description: flow cytometry, CHO-MICA002 cells. In general terms: In flow cytometry, cells or beads pass a laser one at a time.
Description: CHO-MICA002 cells were incubated with titrated anti-MICA/B antibodies and then APC-labeled anti-human Fc antibody. […] The antibody binding signals of APC (gMFI) to MICA/B were measured by flow cytometry.
(§1) After an incubation time of 30 minutes, the plate was centrifuged and cells were washed with PBS three times. […] After mixing for 30 minutes at room temperature, cells were washed with PBS twice. Fluorescent signal was detected and quantified by flow cytometry (Attune™ CytPix™, ThermoFisher) within the population of live cells (viability dye PI negative).

Assay [2] has as its target T2, human MICA004 on cells (human).
T2 construct: whole, on cells; also called CHO-MICA004; C1R-MICA004
Description: flow cytometry, CHO-MICA004 cells.
Description: (§2) IgG1 is an isotype control (IgG). The antibody binding signals of APC (gMFI) to MICA/B were measured by flow cytometry.
as §1

In assay [3] the target is T1, human MICA002 on cells. Description: flow cytometry, CHO-MICA002 cells.
Assay [4] has as its target T2, human MICA004 on cells. Description: flow cytometry, CHO-MICA004 cells. This is another data set of the same source.
The target of assay [5] is T3, human MICB005 on cells (human).
T3 construct: whole, on cells; also called CHO-MICB005; C1R-MICB005
Description: flow cytometry, CHO-MICB005 cells.

The target in the next assay is T4, human MICA008 on cells (human).
T4 construct: whole, on cells; also called CHO-MICA008; C1R-MICA008
Description: flow cytometry, HeLa cells (MICA008).

Another assay deals with T5, MICA002-ECD-HISAvi (human, UniProt Q29983 24-308).
T5 construct: also called MICA002 polypeptide
T5 chain: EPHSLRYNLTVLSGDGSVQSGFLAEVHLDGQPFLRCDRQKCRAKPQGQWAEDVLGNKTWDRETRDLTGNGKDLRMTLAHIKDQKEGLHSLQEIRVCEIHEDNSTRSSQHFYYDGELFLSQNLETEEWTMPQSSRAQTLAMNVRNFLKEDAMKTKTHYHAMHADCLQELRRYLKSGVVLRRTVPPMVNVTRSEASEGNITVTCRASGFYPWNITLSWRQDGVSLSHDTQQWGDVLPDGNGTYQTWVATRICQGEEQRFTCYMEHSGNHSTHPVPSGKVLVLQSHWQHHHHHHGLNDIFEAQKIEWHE
Description: BLI (GatorPrime); antibody on anti-hIgG Fc probe, monomeric antigen in solution.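 Note: binding kinetics of anti-MICA/B antibodies measured by biolayer interferometry, with dissociation followed for about 10 min.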

The target in the next assay is T6, MICA004-ECD-HISAvi (human).
T6 construct: also called MICA004 polypeptide
T6 chain: T5 chain with G14W, C36Y, L122V, M129V, K173E, G175S, T181R, G206S, W210R, S215T
The description is as above.

For another assay, the target named is T7, MICA008-ECD-HISAvi (human).
T7 construct: Two sources under one name in the two kinetic assays; also called MICA008 polypeptide
T7 chain: T5 chain with G14W, C36Y, M129V, K173E, G206S, W210R, T213I, S215T, Q251R
The assay is described as above.

The target in assay [6] is T8, MICB005-ECD-HISAvi (human, UniProt Q29980 24-309).
T8 construct: Two sources under one name in the two kinetic assays; also called MICB005 polypeptide
T8 sequence: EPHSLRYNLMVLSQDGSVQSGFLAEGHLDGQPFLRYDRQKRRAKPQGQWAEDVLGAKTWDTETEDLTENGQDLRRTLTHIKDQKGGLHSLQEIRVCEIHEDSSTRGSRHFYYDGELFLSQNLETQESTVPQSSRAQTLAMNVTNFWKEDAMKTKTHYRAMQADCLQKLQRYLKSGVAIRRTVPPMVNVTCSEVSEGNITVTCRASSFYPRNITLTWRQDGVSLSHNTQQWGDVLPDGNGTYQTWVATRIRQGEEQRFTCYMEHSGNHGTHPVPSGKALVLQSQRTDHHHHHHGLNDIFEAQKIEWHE
The description is as above.
Description: (§3) The binding kinetics of the antibodies were also measured using the GatorPrime BLI (Biolayer Interferometry) system (Gator Bio, USA). Specifically, the anti-MICA/B antibodies were loaded with HFC (Anti-hIgG Fc, Gator Bio, Cat #: 160003). […] The dissociation kinetics were monitored for approximately 10 minutes. The probes were regenerated between binding cycles with Regeneration Buffer (Gator Bio, Cat #: 120012). Binding kinetics were analyzed using software supplied by the manufacturer.

For another assay, the target named is T9, MICA009Avi (human).
T9 construct: extracellular domain
Described as above.

Assay [7] has as its target T10, Cynomolgus monkey MICA (cynoMICA) (Cynomolgus monkey (Macaca fascicularis)).
T10 construct: also called cyno monkey MICA; cyno MIC protein
Described as above.
Description: as §3

Assay [8] has as its target T8, MICB005-ECD-HISAvi. Description: SPR (Carterra); antibody captured by anti-human Fc, monomeric ECD antigen injected.
Description: The dissociation kinetics were monitored for approximately 10 minutes. The chip surface was regenerated between binding cycles with 10 mM glycine HCl, pH 1.7. Binding kinetics were analyzed using software supplied by the manufacturer.
In assay [9] the target is T3, human MICB005 on cells. Description: flow cytometry on CHO-MICB005 cells; column HSA_1w (1 week in human serum at 37 C).
Description: (§4) The plate was centrifuged, and cells were washed with PBS three times. […] After incubation for 30 minutes at room temperature, cells were washed with PBS twice. Signals of APC were determined by flow cytometry (Attune™ CytPix™, ThermoFisher) within the population of live cells (viability dye PI negative).
(§5) The EC50 values were calculated based on non-linear fitting curves by GraphPad Prism software.
Assay [10] addresses T3, human MICB005 on cells. Description: flow cytometry on CHO-MICB005 cells; column HSA_2w (2 weeks in human serum at 37 C).
Description: as §4, §5

Changes are numbered by the printed parent chain. Where two headings read alike, the source gives them in different places.

T4 sequence (Q29983 whole entry): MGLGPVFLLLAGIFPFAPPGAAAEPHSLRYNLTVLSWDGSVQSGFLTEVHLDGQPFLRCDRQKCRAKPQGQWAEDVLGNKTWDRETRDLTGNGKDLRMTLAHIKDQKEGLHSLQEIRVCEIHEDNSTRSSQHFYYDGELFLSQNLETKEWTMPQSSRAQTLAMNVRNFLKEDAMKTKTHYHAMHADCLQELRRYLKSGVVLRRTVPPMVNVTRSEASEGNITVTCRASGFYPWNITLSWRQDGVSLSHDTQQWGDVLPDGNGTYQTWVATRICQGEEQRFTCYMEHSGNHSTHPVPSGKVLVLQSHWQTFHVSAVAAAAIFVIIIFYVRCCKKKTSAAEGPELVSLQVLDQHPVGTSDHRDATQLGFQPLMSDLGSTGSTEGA
T2 sequence (Q29983 whole entry): as above
Description for MICA002-ECD-HISAvi: as §3
Description for MICA004-ECD-HISAvi: as §3
Description for MICA008-ECD-HISAvi: as §3
Description for MICA009Avi: as §3
Description for human MICA008 on cells: as §2, §1

B1: 1D5 (antibody, human IgG1, kappa, V domains shown)
VH: EIQLQQSGPELVKPGASVKVSCKASGYAFTSQNIYWVKQSHGKSLEWIGYIEPYNVVPMYNPKFKGKATLTVDKSSSSAYIHLNSLTSEDSAIYYCARSGSSNFDYWGQGTTLTVSS
VL: EIILTQSPTTMAASPGEKITITCSASSSISSHYLHWYQQKSGFSPKLLIYRTSNLASGVPARFSGSGSGTSYSLTIGTMEAEDVATYYCQQGSSLPLTFGAGTKVEIKR
notes: also called ID5
Regarding B1, the 50% effective concentration (EC50) (commonly the concentration needed to bring the measured effect to its halfway point) with human MICA002 on cells [1] was 0.19 µg/mL; with human MICA004 on cells [2], 0.157 µg/mL; in the assay with human MICA002 on cells [3], 0.301 µg/mL; with human MICA004 on cells [4], 0.193 µg/mL; in the assay with human MICB005 on cells [5], 0.198 µg/mL; with human MICA008 on cells, 0.034 µg/mL. The concentration giving a half-maximal response (EC50) came out at 0.229 µg/mL with human MICB005 on cells [9] and 0.287 µg/mL with human MICB005 on cells [10]. The dissociation constant Kd (as a rule, the concentration at which binding is half-saturated) in the assay with MICA002-ECD-HISAvi came to 0.0757 nM; with MICA004-ECD-HISAvi, 0.101 nM; with MICA008-ECD-HISAvi, 0.026 nM; with MICB005-ECD-HISAvi [6], 0.195 nM; with MICA009Avi, 0.11 nM; in assay [7], 5.2 nM. This molecule also showed a Kd in the assay with MICB005-ECD-HISAvi [8] of 0.96 nM.

B2: 3F9 (antibody, human IgG1, kappa, V domains shown)
VH: QVQLVESGGGLVKPGGSLRLSCAASGFTFSNYAMSWIRQAPGKGLEWVSYISPGGDYIYYADSVKGRFTISRDNAKNSLYLQMNSLRAEDTAVYYCTTDRRHYGSYAMDYWGQGTLVTVSS
VL: DIVMTQSPLSLPVTPGEPASISCRSSKSLLHSNLNTYLYWFLQKPGQSPQILIYRMSNLASGVPDRFSGSGSGTAFTLKISRVEAEDVGVYYCMQHLEYPFTFGPGTKLEIKR
notes: also called benchmark 3F9
In the case of B2, the EC50 was determined as 0.352 µg/mL in the assay with human MICA002 on cells [1]; 0.443 µg/mL with human MICA004 on cells [2]; 0.857 µg/mL with human MICA002 on cells [3]; 0.89 µg/mL with human MICA004 on cells [4]; 1.08 µg/mL with human MICB005 on cells [5]; 0.115 µg/mL with human MICA008 on cells. Also, the EC50 with human MICB005 on cells [9] was found to be 0.804 µg/mL; with human MICB005 on cells [10], 0.784 µg/mL. Moreover, the Kd was found to be 1.35 nM in the assay with MICA002-ECD-HISAvi; 1.08 nM with MICA004-ECD-HISAvi; 0.295 nM with MICA008-ECD-HISAvi; 2.19 nM with MICB005-ECD-HISAvi [6]; 0.936 nM with MICA009Avi; 14.3 nM in [7]. Besides, binding with MICB005-ECD-HISAvi [8] was put at a Kd of 5.47 nM.

Source of the values: patent publication US20250368742A1 (D2M BIOTHERAPEUTICS, published 2025).
